In patent EP0813419B1 (YEDA RESEARCH & DEVELOPMENT COMPANY, LTD., dated 2005):

T1: intracellular domain of the human p75 TNF receptor (human, UniProt P20333 288-461, limits assumed)
T1 construct: domain: intracellular domain; construct not described; also called p75IC
T1 sequence (looked up): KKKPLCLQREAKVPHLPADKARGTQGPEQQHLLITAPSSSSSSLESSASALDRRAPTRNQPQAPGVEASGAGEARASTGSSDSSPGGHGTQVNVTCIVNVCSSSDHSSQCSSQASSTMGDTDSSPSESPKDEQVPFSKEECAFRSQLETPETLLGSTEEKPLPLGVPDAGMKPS

B1: 'death domain' (DD) of human MORT-1 (residues 92-208) (other, not shown: large carriers)
chain: PGEEDLCAAFNVICDNVGKDWRRLARQLKVSDTKIDSIEDRYPRNLTERVRESLRIWKNTEKENATVAHLVGALRSCQMNLVADLVQEVQQARDLQNRSGAMSPMSWNSDASTSEAS
notes: Gal4 hybrid construct in yeast; also called HF1; MORT-1 DD
B2: 'death domain' (DD) of human TRADD (residues 195-312) (other, not shown: large carriers)
chain: PPPPAQTFLFQGQPVVNRPLSLKDQQTFARSVGLKWRKVGRSLQRGCRALRDPALDSLAYEYEREGLYEQAFQLLRRFVQAEGRRATLQRLVEALEENELTSLAEDLLGLTDPNGGLA
notes: Gal4 hybrid construct in yeast; also called TRADD DD

What was measured:
[1] = target: T1, intracellular domain of the human p75 …; assay: yeast two-hybrid specificity test (not shown)
[2] = target: B2; assay: yeast two-hybrid (Gal4 DBD and AD fusions, SFY526), beta-galactosidase filter assay
[3] = target: the molecule itself; assay: yeast two-hybrid (Gal4 DBD and AD fusions, SFY526), beta-galactosidase filter assay; self-association
[4] = target: B1; assay: yeast two-hybrid specificity test (not shown)
[5] = target: B2; assay: yeast two-hybrid specificity test (not shown)

Binder | binding result [1] | binding result [2] | binding result [3] | binding result [4] | binding result [5]
B1 | no binding | binds | no binding |  | 
DD of the rat low-affinity NGF receptor (receptor, UniProt P07174 340-425, looked up, domain: DD; Two-hybrid control; construct not described) LPLTKREEVEKLLNGDTWRHLAGELGYQPEHIDSFTHEACPVRALLASWGAQDSATLDALLAALRRIQRADIVESLCSESTATSPV |  |  |  | no binding | no binding
B2 | no binding |  | binds |  | 
